The values that follow are results of earlier work, collected in publication PMC4941815.

One series has as its target CLK1 (Homo sapiens) (UniProt P49759). Put plainly: competition.
The target in another series is SRPK1 (Homo sapiens) (UniProt Q96SB4). In words: competition.
SRPK1 (Homo sapiens), sequence (Q96SB4 whole entry): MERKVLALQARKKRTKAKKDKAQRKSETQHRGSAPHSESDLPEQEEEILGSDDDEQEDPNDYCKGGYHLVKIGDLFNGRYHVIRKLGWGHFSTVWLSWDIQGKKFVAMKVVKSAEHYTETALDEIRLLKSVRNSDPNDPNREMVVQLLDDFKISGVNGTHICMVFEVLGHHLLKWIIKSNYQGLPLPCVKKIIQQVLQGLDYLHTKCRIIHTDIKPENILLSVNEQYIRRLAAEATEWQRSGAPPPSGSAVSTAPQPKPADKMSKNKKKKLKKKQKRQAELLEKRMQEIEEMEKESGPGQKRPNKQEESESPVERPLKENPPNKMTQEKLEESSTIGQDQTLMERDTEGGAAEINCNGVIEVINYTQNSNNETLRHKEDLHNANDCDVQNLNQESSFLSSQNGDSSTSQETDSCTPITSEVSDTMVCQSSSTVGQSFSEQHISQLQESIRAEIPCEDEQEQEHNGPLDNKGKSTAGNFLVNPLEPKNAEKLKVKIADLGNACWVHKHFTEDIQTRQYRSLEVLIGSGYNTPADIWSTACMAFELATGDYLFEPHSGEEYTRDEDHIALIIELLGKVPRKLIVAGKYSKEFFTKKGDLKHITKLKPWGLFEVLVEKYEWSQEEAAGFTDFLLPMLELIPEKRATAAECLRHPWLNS

SRSF1, sequence (Q07955 2-248): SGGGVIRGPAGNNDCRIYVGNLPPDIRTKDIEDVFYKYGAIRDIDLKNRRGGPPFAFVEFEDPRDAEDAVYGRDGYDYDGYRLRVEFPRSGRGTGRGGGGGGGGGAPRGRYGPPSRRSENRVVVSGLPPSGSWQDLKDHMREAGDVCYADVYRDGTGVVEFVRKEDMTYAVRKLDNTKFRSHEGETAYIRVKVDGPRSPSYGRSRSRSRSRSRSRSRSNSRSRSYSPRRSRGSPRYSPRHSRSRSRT
CLK1 (Homo sapiens), sequence (P49759 whole entry): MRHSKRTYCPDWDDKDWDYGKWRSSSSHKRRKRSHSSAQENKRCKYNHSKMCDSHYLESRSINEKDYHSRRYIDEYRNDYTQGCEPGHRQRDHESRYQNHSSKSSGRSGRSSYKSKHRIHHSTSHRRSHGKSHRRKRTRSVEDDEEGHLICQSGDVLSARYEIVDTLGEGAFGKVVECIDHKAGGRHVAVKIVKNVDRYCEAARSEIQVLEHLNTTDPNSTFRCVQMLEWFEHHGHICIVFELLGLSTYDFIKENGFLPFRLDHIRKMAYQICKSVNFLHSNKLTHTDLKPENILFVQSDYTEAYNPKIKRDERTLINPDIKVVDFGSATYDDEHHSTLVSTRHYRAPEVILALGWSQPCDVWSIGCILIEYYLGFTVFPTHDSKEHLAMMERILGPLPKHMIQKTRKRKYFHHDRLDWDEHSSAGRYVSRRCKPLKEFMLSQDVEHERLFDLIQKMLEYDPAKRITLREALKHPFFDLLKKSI

With SRSF1 (from UniProt Q07955), the Kd with CLK1 (Homo sapiens) is 6 nM; with SRPK1 (Homo sapiens), 60 nM.

As a reminder, the Kd is the constant that tells how readily two partners part at equilibrium.
